In assay [1] the target is T1, WT PRCs (mouse, UniProt Q61851). The experiment in a line: cell-based or functional assay.
Assay [2] concerns the target T1, WT PRCs. The experiment in a line: cell-based or functional assay. The source holds these as a separate data set.
The target of assay [3] is T1, WT PRCs. The experiment in a line: cell-based or functional assay. The source holds these as a separate data set.
For assay [4], the target named is T2, FGFR3 fused to β-galactosidase fragments (FGFR3-PK and FGFR3-EA) co-expressed in U2OS cells. The experiment in a line: cell-based or functional assay.
Assay [5] addresses T3, wild-type human FGFR3 isoform IIIc, full length, expressed on transfected cells (human, UniProt P22607 23-806).
T3 construct: also called wild-type FGFR3; FGFR3-300.19
The experiment in a line: FACS, cells transfected with wild-type FGFR3.
Method: (§1) After three washes, the cells were incubated with a fluorescent-conjugated secondary antibody (Invitrogen).

For assay [6], the target named is T4, human FGFR3 G380R isoform IIIc, full length, expressed on transfected cells (human, UniProt P22607 23-806).
T4 construct: also called mutant FGFR3; FGFR3^G380R-300.19
The experiment in a line: FACS, cells transfected with mutant FGFR3 (G380R). For orientation: In flow cytometry, cells or beads pass a laser one at a time.
Method: as §1

Assay [7] has as its target T2, FGFR3 fused to β-galactosidase …. The experiment in a line: cell-based or functional assay. This is another data set of the same source.
For assay [8] the target is unchanged. The experiment in a line: cell-based or functional assay. The source holds these as a separate data set.

This is an account of results in patent US20220056142A1 (Sanofi, published 2022).

B1: KC18_Hu46 (antibody, human IgG1, kappa, V domains shown)
VH: EVQLVQSGAEVKKPGATVKLSCKASGDTFTDFEIHWVQQAPGKGLEWIGDVDPETGGTAYAEKFQGRATLTADRSTDTAYLELSSLRSEDTAVYYCTRTYDGYPYAFDYWGQGTLVTVSS
VL: DIVMTQSPDSLAVSLGERVTINCKSSQSVLYSDNQKNYLAWYQQKPGQSPKLLIYFASTRESGVPDRFSGSGSGTDFTLTISSVQAEDVAVYYCQQYYSYRTFGGGTKLEIKR
Consider B1, for which the “IC50, inhibition of FGF18-stimulated Erk phosphorylation (pErk/Erk %, HTRF), 'Hu46 on WT PRCs'” value with WT PRCs [1] amounted to 0.55 µg/ml.

B2: KC18_Hu18 (antibody, human IgG1, kappa, V domains shown)
VH: EVQLVQSGAEVKKPGATVKLSCKASGDTFTDFEIHWVQQAPGKGLEWIGDVDPETGGTAYAEKFQGRATLTADRSTDTAYMELSSLRSEDTAVYYCTRTYDGYPYAFDYWGQGTLVTVSS
VL: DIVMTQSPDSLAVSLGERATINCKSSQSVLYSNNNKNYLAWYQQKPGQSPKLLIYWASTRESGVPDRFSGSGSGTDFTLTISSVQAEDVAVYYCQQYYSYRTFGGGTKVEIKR
Consider B2, for which, in the assay with WT PRCs [2], the “IC50, inhibition of FGF18-stimulated Erk phosphorylation (pErk/Erk %, HTRF), 'Hu18 on WT PRCs'” value is 0.42 µg/ml.

B3: KC18_Hu44 (antibody, human IgG1, kappa, V domains shown)
VH: EVQLVQSGAEVKKPGATVKLSCKASGDTFTDFEIHWVQQAPGKGLEWIGDVDPETGGTAYAEKFQGRATLTADRSTDTAYLELSSLRSEDTAVYYCTRTYDGYPYAFDYWGQGTLVTVSS
VL: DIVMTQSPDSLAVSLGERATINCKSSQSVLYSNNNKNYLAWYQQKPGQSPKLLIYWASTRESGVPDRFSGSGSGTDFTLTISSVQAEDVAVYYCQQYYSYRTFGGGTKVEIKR
For B3, the “IC50, inhibition of FGF18-stimulated Erk phosphorylation (pErk/Erk ratio %, HTRF), 'Hu44 on WT PRCs'” value with WT PRCs [3] was determined as 0.32 µg/ml.

B4: KC18 (antibody, V domains shown)
VH: QVQLQQSGAELVRPGASVTLSCKASGDTFTDFEIHWVKQTPVHGLEWIGDIDPETGGTAYNQKFRGRAMLTADRSSSTAYMELRSLTSEDSAVYYCTRTYDGYPYAMDYWGQGTSVTVSS
VL: DIVMSQSPSSLAVSVGEKVTMSCKSSQSLLYSNNQKNYLAWYQQKPGQSPKLLIYWASTRESGVPDRFTGSGSGTDFTLTISSVKAEDLAVYYCQQYYSYRTFGGGTKLEIKR
Regarding B4, the “EC50, inhibition of FGF18-induced FGFR3 dimerization (RLU, beta-galactosidase complementation in U2OS cells); table column 'KC18 with FGF'” value in assay [4] is 0.521 µg/mL.

B5: KE63 (antibody, V domains shown)
VH: QVQLQQSGAELVRPGASVTLSCKASGSTFSDFEIHWVKQTPVHGLEWIGGIDPETGGTAYNQKFKGKAILTADRSSSTAYMELRSLTSEDSAVYYCTRNYDGYSQTMDYWGQGTSVTVSS
VL: NIMMTQSPSSLAVSAGEKVTMSCKSSQSVLYSSNQKNYLAWYQQKPGQSPKLLIYWASTRESGVPDRFTGSGSGTDFTLTISSVQAEDLAVYYCHQYLSSYTFGGGTKLEMK
notes: Mouse hybridoma monoclonal antibody
Consider B5, for which the binding result in assay [5] and in assay [6] was “binds” throughout.

B6: KE94 (antibody, V domains shown)
VH: QVQLQQSGAELVRPGASVTLSCKASGSTFTDFEIHWVKQTPVHGLEWIGAIDPETGGTAYNQKFKGKAILTAVKSSSTAYMGLRSLTSEDSAVYYCTRNYDGYSRTMDYWGQGTSVTVSS
VL: NIMMTQSPSSLAVSAGEKVTMSCKSSQSVLYSSNQKNYLAWYQQKPGQSPKLLIYWASTRESGVPDRFTGSGSGTDFSLSISSVQTEDLAVYYCHQYLSSYTFGGGTRLEMK
notes: as for B5
B6: the binding result in assay [5] and in assay [6] was “binds” in each case. Moreover, in assay [7], the “EC50, inhibition of FGF18-induced FGFR3 dimerization (RLU, beta-galactosidase complementation in U2OS cells); fitted curve 'KE94 with FGF18'” value came to 0.102 µg/mL.

B7: KE35 (antibody, V domains shown)
VH: EVQLQQSGPELVKPGASVKMSCKASGYTFTDYNMHWVKQSHGKSLEWIGYINPNNGGTRYNQKFKGKATLTVNKSSSTAYMELRSLTSEDSAVYYCARERDYDGAMDYWGQGTSVTVSS
VL: DIQMTQSPSSLSASLGGKVTITCKASQDINKFIAWYQHKPGKGPRLLIHYTSTLQPGIPSRFSGSGSGRDYSFSISNLEPEDIATYYCLQYDNLLWTFGGGTKLEIK
notes: as for B5
Turning to B7, the binding result in assay [5] and in assay [6] was “binds” in each case.

B8: KE42 (antibody, V domains shown)
VH: EVQLQQSGPELVKPGASVKMSCKASGYTFTDYNMHWVKQSHGKSLQWIGYINPNNGGTNYNQNFKDKATLTVNKSSTTAYMELRSLTSEDSAVYYCARERDYDGSMDFWGQGTSVTVSS
VL: DIQMTQSPSSLSASLGGKVTITCKASQDINKFIAWYQHKPGKGPRLLIHYTSTLQPGIPSRFSGSGSGRDYSFSISNLEPEDIATYFCLQYDNLLWTFGGGTKLEIK
notes: as for B5
Consider B8, for which the binding result in assay [5] and in assay [6] was “binds” each time.

B9: KE58 (antibody, V domains shown)
VH: EVQLQQSGPDLVKPGASVKISCKASGYTVTDYYMNWVKQSHGKSLEWIGDINPNNGVTTYNQKFKDKATLTVDKSSSTAYMELRSLTSEDSAVYYCAREEDFDGFDYWGQGTTLTVSS
VL: DIVMTQSHKFMSTSVGDRVSITCKASQDVSTGVAWYQQKPGQSPQLLIYWASTRHTGVPDRFTGSGSGTDYILTIRSVQAEDLALYYCQQHYSTPLTFGAGTKLELK
notes: as for B5
B9: the binding result in assay [5] and in assay [6] was “binds” each time. Moreover, in assay [8], the “EC50, inhibition of FGF18-induced FGFR3 dimerization (RLU, beta-galactosidase complementation in U2OS cells); fitted curve 'KE58 with FGF18'” value amounted to 0.423 µg/mL.
